Experimental data from article PMC5641120 (Oncotarget, 2017).

Target: human PD-1 (residues 33–150, Cys93 exchanged to serine) (human, UniProt Q15116 33-150, Cys93 exchanged to serine, uniform 15N labelling)
Assay: NMR titration; 1H-15N HMQC, 300K; AIDA: 15N-labeled PD-1 (0.2 mM) slightly overtitrated with unlabeled PD-L1; for the mutants also NMR-monitored direct titration; PBS pH 7.4 (PD-L1) or 25 mM sodium phosphate, 100 mM NaCl pH 6.4 (PD-1)
Conditions: both partners purified

Sequence of human PD-1 (residues 33–150, Cys93 exchanged to serine) (Q15116 other isoform, or with tags, fused parts or gaps Cys93 exchanged to serine | Cys93 exchanged to serine): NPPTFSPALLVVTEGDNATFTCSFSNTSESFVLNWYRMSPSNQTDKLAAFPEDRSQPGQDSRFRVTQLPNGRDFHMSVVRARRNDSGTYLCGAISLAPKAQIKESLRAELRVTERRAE

- binding result: binds
B1: human PD-L1 (residues 18–134, C-terminal His-tag) (domain or fragment)
chain: AFTVTVPKDLYVVEYGSNMTIECKFPVEKQLDLAALIVYWEMEDKNIIQFVHGEEDLKVQHSSYRQRARLLKDQLSLGNAALQITDVKLQDAGVYRCMISYGGADYKRITVKVNAPY
modifications: NTA-Atto 647 N fluorescent dye on the His-tag (flow cytometry only); uniform 15N labelling (NMR titration with compounds only)
notes: PD-L1, human, residues 18-134 (Ig-like V-type domain); also called sPD-L1; soluble PD-L1; source: expressed and purified as described previously [26]; 15N labelling in M9 minimal medium; not shown: His-tag, C-terminal, kept
